Experimental data: patent publication US10709762B2, “Use of M-CSF for preventing or treating myeloid cytopenia and related complications” (priority 2013, dated 2020)

Assays:
[1] = test system: PU.1 promoter activation in single PU.1 negative HSC; assay: Time-lapse video imaging of GFP-negative sorted HSC from PU.1-GFP mice; assay type: cell-based
Experimental: Wherever possible our video microscopy protocols followed proposed guidelines^24. In detail, FACS sorted CD150+ CD34− KSLF HCS from wt C57/Bl6 or GFP-negative CD150+ CD34− KSLF HSC from PU.1-GFP reporter mouse^31 bone marrow were suspended in SCM supplemented with 100 U/ml penicillin and […] streptomycin, 20 ng/ml rSCF, 50 ng/ml rTPO+/−100 ng/ml rM-CSF and plated in Ibidi μ-slidesVI(0.4) (Biovalley SA, France). Time-lapse microscopy was performed using a Cell Observer system (Carl Zeiss Microscopy GmbH, Germany) at 37° C. and 5% CO2. Images were acquired every 10 minutes using 10× (A-plan 10×/0.45 Ph1) or 40× (Plan-Apochromat 40×/0.95 Korr M27) objectives in brightfield and fluorescence (GFP filters: EX BP 470/40; at 350 ms) with a COOLSNAP™ HQ2 monochrome camera (Photometrics) with a 2×2 binning and a metal halide 120W source for fluorescence illumination. For image analysis a matrix of 4×4 images was acquired for each time point. Images were stitched with AxioVision software (Carl Zeiss Microscopy GmbH, Germany) and processed with Fiji software^36 using a slight rolling ball subtraction of background and 1 pixel Gaussian blur. For background subtraction of brightfield images, the median of z-projection was subtracted from the time-lapse stack. Single cell tracking was performed with basic commands of ImageJ^37 and Fiji^36 software and with specific tracking plugin MTrackJ^38 in manual mode. Each cell was tracked manually frame-by-frame in the bright field channel and cross-controlled by two microscope specialists. Cells with non-standard morphology or size were rejected. The fluorescence signal was measured as the difference of maximum minus minimum intensity within a defined region of interest (ROI) around each cell. Cell properties and behaviour (cell division, cell death, position, fluorescence increase) were manually documented to build cumulated curves. R^39 and Excel (Microsoft Corporation) software was used to manage data and build graphics.

CD150hi HSC = assay: In vitro culture of HSC, proliferation and survival; assay type: cell-based, mice; details: culture in the presence of M-CSF
Experimental: (§1) CD150+CD34− KSLF HSC or CD150+CD34− CD48− KSLF HSC (single cells) were sorted into S-clone SF-03 medium (Sanko Jyunyaku) with 10% FBS supplemented with 100 U/ml penicillin and […] streptomycin (both Invitrogen) and cultivated in uncoated U-Shape 96 well plates (Greiner) in 100 μl SCM, 20 ng/ml rSCF, 50 ng/ml rTPO+/−100 ng/ml rM-CSF or 100 ng/ml rGM-CSF or 100 ng/ml rG-CSF. All cytokines were murine and from PeproTech. Cell viability was analyzed by AnnexinV and Propidium iodide FACS staining^35.

[2] = test system: endogenous PU.1 protein in single HSC; assay: Intra-splenic injection of CFSE-labelled HSC, PU.1 immunofluorescence; assay type: in vivo, mice; details: M-CSF receptor deficient HSC
Experimental: For analysis of HSC in vivo, 1500 to 7000 FACS sorted CD150^+ CD34^− KSLF HSC were stained 10 min at 37° C. with 3 μM CFSE (Invitrogen) in PBS/0.5% BSA, washed 3× in PBS/0.5% BSA and injected in 30 μl PBS (containing or not 1 μg of isotype control or AFS98 α-M-CSFR antibody^26 or 2 μM GW2580, 10 μM Ly29400, 10 μM PD98059 or 2 μM SU6656 inhibitors in 0.9% DMSO) into the spleen of anesthetized mice. After 24 h spleens were embedded in OCT (Tissue-Tek, Sakura) and frozen at −80° C. Cryostat sections (5 μm) were prepared from the entire organ, dried and fixed 10 min in 4% PFA/PBS at room temperature (RT) and every 10th section was further processed. After washes in PBS, slides were blocked for 1 hour at RT in PBS/2% BSA/1% Donkey serum/1% FCS/0.1% saponin, incubated for 36 h at 4° C. with anti-PU.1 polyclonal antibody (Santa Cruz) in PBS/0.05% saponin (1:50), washed and incubated with secondary Alexa 546-donkey-anti-rabbit antibody (Molecular probes) in PBS/0.05% saponin (1:500). All immunofluorescence samples were mounted with ProLong Gold DAPI antifade (Molecular probes) and analyzed by multifluorescent microscopy on a Zeiss Axioplan 2. All CFSE+ cells were analysed for PU.1 expression up to ≥30 or ≥50 cells as indicated. Cell counts and staining were verified by a second trained microscopist blinded to sample identity. […]

[3] = test system: PU.1 expression in sorted HSC; assay: Quantitative RT-PCR of PU.1 expression in sorted HSC in culture; assay type: cell-based, mice; details: 16 h in culture with cytokine, 100 ng/ml
Experimental: as §1
Total RNA was isolated and reverse transcribed with μMACS™ ONE-STEP T7 template kit (Miltenyi Biotec) and analysed by quantitative real-time PCR using TAQMAN® Universal PCR Master Mix and a 7500 Fast Real Time PCR System sequence detection system (both Applied Biosystem), following the manufacturers' instructions.

B1: M-CSF: recombinant murine macrophage colony stimulating factor from PeproTech, used in Example 1 (protein, UniProt P07141 33-552, looked up)
Macrophage colony-stimulating …: KEVSEHCSHMIGNGHLKVLQQLIDSQMETSCQIAFEFVDQEQLDDPVCYLKKAFFLVQDIIDETMRFKDNTPNANATERLQELSNNLNSCFTKDYEEQNKACVRTFHETPLQLLEKIKNFFNETKNLLEKDWNIFTKNCNNSFAKCSSRDVVTKPDCNCLYPKATPSSDPASASPHQPPAPSMAPLAGLAWDDSQRTEGSSLLPSELPLRIEDPGSAKQRPPRSTCQTLESTEQPNHGDRLTEDSQPHPSAGGPVPGVEDILESSLGTNWVLEEASGEASEGFLTQEAKFSPSTPVGGSIQAETDRPRALSASPFPKSTEDQKPVDITDRPLTEVNPMRPIGQTQNNTPEKTDGTSTLREDHQEPGSPHIATPNPQRVSNSATPVAQLLLPKSHSWGIVLPLGELEGKRSTRDRRSPAELEGGSASEGAARPVARFNSIPLTDTGHVEQHEGSSDPQIPESVFHLLVPGIILVLLTVGGLLFYKWKWRSHRDPQTLDSSVGRPEDSSLTQDEDRQVELPV
proliferation or survival advantage of cultured HSC (video-microscopy) ([1]; culture in M-CSF): no proliferation or survival advantage
PU.1+ cells developed versus control conditions ([1]; end of the 24 h observation period (18 to 42 hours of culture)): over two-fold more PU.1+ cells
commitment events of PU.1 activation occurred earlier ([1]; in the presence of M-CSF versus control): 8 h
rate of PU.1 activation events ([1]; over the whole observation period): higher rate
proliferation or survival advantage of cultured CD150hi HSC (CD150hi HSC): no proliferation or survival advantage
PU.1 activation in M-CSFR-/- HSC, M-CSF stimulated versus control recipients [2]: no higher activation of PU.1
PU.1 expression in FACS purified HSC [3]: increased PU.1 expression
